The target of assay [1] is hFcγRIIIaV on Jurkat effector cells (human, UniProt P08637 17-254). As to the kind of experiment: cell-based or functional assay.
Assay [2] deals with T1, hFcγRIIaH on Jurkat effector cells (human, UniProt P12318 34-317).
T1 sequence (looked up): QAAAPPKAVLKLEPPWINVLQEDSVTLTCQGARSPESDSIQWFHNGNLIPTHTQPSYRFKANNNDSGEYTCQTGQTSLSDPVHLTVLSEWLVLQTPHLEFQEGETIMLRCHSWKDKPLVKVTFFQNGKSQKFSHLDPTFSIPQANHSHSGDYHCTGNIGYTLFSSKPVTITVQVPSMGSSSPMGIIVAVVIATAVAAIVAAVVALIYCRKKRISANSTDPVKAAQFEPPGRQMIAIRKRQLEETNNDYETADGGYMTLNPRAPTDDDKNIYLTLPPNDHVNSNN
As to the kind of experiment: cell-based or functional assay.

The target in assay [3] is T2, human FcγRIa extracellular domain (human, UniProt P12314 16-292).
T2 construct: extracellular domain; also called hFcγR Ia
T2 sequence (P12314 16-292): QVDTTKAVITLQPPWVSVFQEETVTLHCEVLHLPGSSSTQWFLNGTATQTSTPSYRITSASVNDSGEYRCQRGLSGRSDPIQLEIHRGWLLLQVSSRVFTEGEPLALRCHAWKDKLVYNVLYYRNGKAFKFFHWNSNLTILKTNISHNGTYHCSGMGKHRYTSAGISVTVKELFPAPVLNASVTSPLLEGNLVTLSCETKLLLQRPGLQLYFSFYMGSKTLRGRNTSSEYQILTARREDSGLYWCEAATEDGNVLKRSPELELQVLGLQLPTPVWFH
In words: SPR; KD of G1d divided by KD of this antibody. On the technique in general: SPR reads the build-up and loss of mass on a sensor chip optically.

For assay [4], the target named is T3, human FcγRIIa H extracellular domain (human, UniProt P12318 34-217).
T3 construct: extracellular domain; also called hFcγR IIa H; FcγRIIa allotype H131
T3 sequence (looked up): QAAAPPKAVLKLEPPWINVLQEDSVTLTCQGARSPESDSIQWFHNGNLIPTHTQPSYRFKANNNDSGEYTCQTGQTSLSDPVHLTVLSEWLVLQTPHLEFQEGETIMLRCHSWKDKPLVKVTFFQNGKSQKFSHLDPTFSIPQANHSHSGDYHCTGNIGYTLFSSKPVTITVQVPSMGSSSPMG
In words: SPR; KD of G1d divided by KD of this antibody.

The target in assay [5] is T4, human FcγRIIa R extracellular domain (human, UniProt P12318 34-217).
T4 construct: extracellular domain; also called hFcγR IIa R; FcγRIIa allotype R131
T4 sequence (looked up): T3 sequence (looked up) with H134R
As to the kind of experiment: SPR; KD of G1d divided by KD of this antibody.

The target of assay [6] is T5, human FcγRIIb extracellular domain (human, UniProt P31994 43-217).
T5 construct: extracellular domain; also called hFcγR IIb
T5 sequence (looked up): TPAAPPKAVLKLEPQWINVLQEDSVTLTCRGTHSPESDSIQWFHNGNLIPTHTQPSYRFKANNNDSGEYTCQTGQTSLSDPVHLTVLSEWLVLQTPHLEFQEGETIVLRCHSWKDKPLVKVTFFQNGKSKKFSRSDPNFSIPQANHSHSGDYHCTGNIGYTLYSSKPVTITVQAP
As to the kind of experiment: SPR; KD of G1d divided by KD of this antibody.

The target of assay [7] is T6, human FcγRIIIa F extracellular domain (human, UniProt P08637 17-208).
T6 construct: extracellular domain; also called hFcγR IIIa F; FcγRIIIa allotype F158
T6 sequence (P08637 17-208): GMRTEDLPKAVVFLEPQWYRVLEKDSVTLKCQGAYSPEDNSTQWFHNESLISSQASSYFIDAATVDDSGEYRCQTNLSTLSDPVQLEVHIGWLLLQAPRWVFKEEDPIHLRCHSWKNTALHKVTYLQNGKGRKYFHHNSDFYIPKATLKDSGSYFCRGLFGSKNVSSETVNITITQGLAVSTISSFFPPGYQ
As to the kind of experiment: SPR; KD of G1d divided by KD of this antibody.

Assay [8] has as its target T7, human FcγRIIIa V extracellular domain (human, UniProt P08637 17-208).
T7 construct: extracellular domain; also called hFcγR IIIa V; FcγRIIIa allotype V158
As to the kind of experiment: SPR; KD of G1d divided by KD of this antibody.

For assay [9], the target named is T3, human FcγRIIa H extracellular domain. In words: SPR; KD for hFcγRIIb divided by KD for this FcγR.
For assay [10], the target named is T4, human FcγRIIa R extracellular domain. As to the kind of experiment: SPR; KD for hFcγRIIb divided by KD for this FcγR.
Assay [11] has as its target T6, human FcγRIIIa F extracellular domain. As to the kind of experiment: SPR; KD for hFcγRIIb divided by KD for this FcγR.
In assay [12] the target is T7, human FcγRIIIa V extracellular domain. In words: SPR; KD for hFcγRIIb divided by KD for this FcγR.
Assay [13] has the same target. As to the kind of experiment: SPR (Biacore 8K+), antibody captured, FcγR as analyte, 25 C, 1:1 Langmuir model. As to the method:
(§1) The extracellular domains of FcγRs were produced by the method described in WO2014104165. The interaction between the produced antibodies and human FcγRs was analyzed using Biacore 8K+ by the method below. For the running buffer, 50 mM Na-Phosphate, 150 mM NaCl, and 0.05% Tween20 (pH 7.4) was used, and measurement was performed at 25° C. The sensor chip used was a Series S SA chip (GE Healthcare) onto which CaptureSelect Human Fab-kappa Kinetics Biotin Conjugate (Thermo Fisher Scientific) was immobilized. An antibody of interest was captured onto this chip, and each FcγR diluted with the running buffer was allowed to interact with it. The chip was regenerated using 10 mM Glycine-HCl (pH 1.5), and repeatedly used to capture antibodies and perform measurement. The dissociation constants KD (mol/L) of each antibody for FcγRs were calculated using Biacore Insight Evaluation Software, with a steady state affinity model for the dissociation constant for FcγRIIb and a 1:1 Langmuir binding model for the dissociation constants for the other FcγRs (Table 2).

The target of assay [14] is T5, human FcγRIIb extracellular domain. In words: SPR (Biacore 8K+), antibody captured, FcγR as analyte, 25 C, steady state affinity model. As to the method: as §1

Where a chain is given by its changes, count along the chain named. In names and notes the source's numbering stands.

This is an account of results in patent publication US20240043515A1 (Chugai, published 2024).

T7 sequence (P08637 17-208 F176V): as the sequence (P08637 17-208) above, with F160V counted along it
Chain of hFcγRIIIaV on Jurkat effector cells (P08637 17-254, form in doubt): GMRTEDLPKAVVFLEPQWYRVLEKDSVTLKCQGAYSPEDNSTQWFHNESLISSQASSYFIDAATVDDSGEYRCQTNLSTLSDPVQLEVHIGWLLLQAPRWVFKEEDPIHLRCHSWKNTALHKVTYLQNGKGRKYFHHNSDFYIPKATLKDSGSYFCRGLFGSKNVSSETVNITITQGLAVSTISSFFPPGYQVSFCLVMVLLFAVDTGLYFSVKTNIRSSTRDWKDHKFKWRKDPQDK

B1: EGL-ART8 (H240-Kn461/L73-k0//H240-H1443/L73-k0) (antibody, human IgG1, kappa)
heavy 1: QDQLVQSGAEVKKPGASVKVSCKASGFNIKDTYIQWVRQAPGQGLEWMGRIDPLRKQTKYREKFEGRVTITADTSTNTAYMELSSLRSEDTAVYYCVRSGREFDYWGQGTLVTVSSASTKGPSVFPLAPSSKSTSGGTAALGCLVKDYFPEPVTVSWNSGALTSGVHTFPAVLQSSGLYSLSSVVTVPSSSLGTQTYICNVNHKPSNTKVDKKVEPKSCDKTHTCPPCPAPEFQWGPMVFLFPPKPKDVLMISRTPEVTCVVVDVSDEEPEVKFNWYVDGVEVHNAKTKPREEQYNATYRVVSVLPVLHQDWLNGKEYKCKVSNDALPAPEEKTISKAKGQPREPQVCTLPPSRDELTKNQVSLWCLVKGFYPSDIAVEWESNGQPENNYKTTPPVLDSDGSFFLYSKLTVDKSRWQQGNVFSCSVMHEALHNHYTQKSLSLSP
heavy 2: QDQLVQSGAEVKKPGASVKVSCKASGFNIKDTYIQWVRQAPGQGLEWMGRIDPLRKQTKYREKFEGRVTITADTSTNTAYMELSSLRSEDTAVYYCVRSGREFDYWGQGTLVTVSSASTKGPSVFPLAPSSKSTSGGTAALGCLVKDYFPEPVTVSWNSGALTSGVHTFPAVLQSSGLYSLSSVVTVPSSSLGTQTYICNVNHKPSNTKVDKKVEPKSCDKTHTCPPCPAPELLAGPSVFLFPPKPKDVLMISRTPEVTCVVVDVSHEEPEVKFNWYVDGVEVHNAKTKPREEQYNATYRVVSVLPVLHQDWLNGKEYKCKVSNDALPAPEEETISKAKGQPREPQVYTLPPSRCELTKNQVSLSCAVKGFYPSDIAVEWESNGQPENNYKTTPPVLDSDGSFFLVSKLTVDKSRWQQGNVFSCSVMHEALHNHYTQKSLSLSP
light: DIQMTQSPSSLSASVGDRVTITCRASQDIHKYIAWYQQKPGQAPRLLIQYTSTLQPGVPSRFSGSGSGTDYTFTISSLQPEDIATYYCLQYEQLRTFGGGTKVEIKRTVAAPSVFIFPPSDEQLKSGTASVVCLLNNFYPREAKVQWKVDNALQSGNSQESVTEQDSKDSTYSLSSTLTLSKADYEKHKVYACEVTHQGLSSPVTKSFNRGEC
notes: Kn461: L234F/L235Q/G236W/S239M/T250V/H268D/D270E/S298A/T307P/K326D/I332E + Y349C/T366W; H1443: G236A/T250V/D270E/S298A/T307P/K326D/I332E/K334E + D356C/T366S/L368A/Y407V
As a reminder, the Kd is a measure of binding affinity in units of concentration. Lower therefore signals tighter binding. Consider B1, for which the “EC50 of reporter gene induction (ADCC Reporter Bioassay, Hepa1-6/hEREG target cells)” value in [1] turned out to be 1.07 ng/mL. The “EC50 of reporter gene induction (ADCP Reporter Bioassay, Hepa1-6/hEREG target cells)” value in assay [2] worked out at 17.1 ng/mL. The “Relative value to KD between G1d and hFcgRs” value (shortened to “Relative value”) in [3] stood at 3.2 times; in assay [4], 15 times; in [5], 13.2 times; in [6] it was 2.8 times; in [7], 1970 times; in [8], 695 times. Further, the “A/I ratio (KD for FcγRIIb divided by KD for each FcγR)” value turned out to be 47.2 ratio in assay [9], 28.1 ratio in [10], 2350 ratio in assay [11] and 6850 ratio in assay [12]. Further, the affinity in [13], expressed as Kd, was 0.516 nM.

B2: EGL-afucosyl (H240-G1d/L73-k_glycomab) (antibody)
heavy: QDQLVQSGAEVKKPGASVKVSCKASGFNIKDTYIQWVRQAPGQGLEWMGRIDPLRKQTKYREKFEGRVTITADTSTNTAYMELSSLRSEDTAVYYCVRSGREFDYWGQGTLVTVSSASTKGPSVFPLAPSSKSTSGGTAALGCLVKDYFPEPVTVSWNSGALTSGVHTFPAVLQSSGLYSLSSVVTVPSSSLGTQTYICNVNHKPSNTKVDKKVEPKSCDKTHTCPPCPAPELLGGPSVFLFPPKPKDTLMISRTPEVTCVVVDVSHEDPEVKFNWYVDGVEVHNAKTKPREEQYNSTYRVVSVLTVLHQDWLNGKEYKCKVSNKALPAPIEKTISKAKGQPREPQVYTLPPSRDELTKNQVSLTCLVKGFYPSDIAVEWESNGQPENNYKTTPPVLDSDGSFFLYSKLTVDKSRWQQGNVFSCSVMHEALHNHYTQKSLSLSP
light: B1 light
modifications: afucosylated (fucose-deficient sugar chain) ; Afucosylated (fucose-deficient) N-glycan at Asn297 (EU) of each heavy chain; the letters cannot carry this.
notes: Same heavy chain as EGL-G1d, produced as a fucose-deficient antibody; also called afucosylated antibody
As for B2, the entries for the “Relative value” value in assay [4] and in assay [6] were 1.1 times and 1.8 times, respectively. Moreover, the results for the Kd in assay [13] and in assay [14] were 19 nM and 5650 nM, respectively.

B3: EGL-GASDIE (H240-Kn037/L73-k0//H240-H1036/L73-k0) (antibody, human IgG1, kappa)
heavy 1: B1 heavy 1 with F233L, Q234L, W235A, M238D, V249T, D267H, E269D, A297S, P306T, D325K
heavy 2: B1 heavy 2 with S238D, V249T, E269D, A297S, P306T, D325K, E333K
light: B1 light
notes: G236A/S239D/I332E in both heavy chains; Kn037 with Y349C/T366W, H1036 with D356C/T366S/L368A/Y407V
Regarding B3, the “EC50 of reporter gene induction (ADCC Reporter Bioassay, Hepa1-6/hEREG target cells)” value in assay [1] was found to be 3.7 ng/mL. In addition, the “EC50 of reporter gene induction (ADCP Reporter Bioassay, Hepa1-6/hEREG target cells)” value in assay [2] came out at 14.9 ng/mL. In addition, the “Relative value” value in [3] came out at 6.2 times; in assay [4], 16.4 times; in assay [5] it was 24.7 times; in [6] it was 8 times; in assay [7] it was 44.7 times; in assay [8], 15.1 times. Besides, the “A/I ratio (KD for FcγRIIb divided by KD for each FcγR)” value is 18.2 ratio in assay [9], 18.6 ratio in [10], 18.9 ratio in [11] and 52.6 ratio in [12].
